Measured values reported in article PMC2192215 (The Journal of Experimental Medicine, 1995).
Entries after “also recorded” stand apart in the source; their conditions may differ. Ends that are not written are not given here.

Experiments:
[1] = cited from earlier work
I-Au molecule = molecular target: T1, I-Au molecule (Mus musculus, UniProt P06344+P14438); details: cited from earlier work
T1 sequence (P06344 whole entry, looked up): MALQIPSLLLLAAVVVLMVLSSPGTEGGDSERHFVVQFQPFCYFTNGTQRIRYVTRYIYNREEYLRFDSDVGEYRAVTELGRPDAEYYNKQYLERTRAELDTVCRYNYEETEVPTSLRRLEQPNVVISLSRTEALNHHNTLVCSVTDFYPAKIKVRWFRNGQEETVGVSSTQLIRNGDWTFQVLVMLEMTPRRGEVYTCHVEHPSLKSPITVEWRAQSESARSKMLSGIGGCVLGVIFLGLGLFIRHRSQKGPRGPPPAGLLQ
T1 sequence (P14438 whole entry, looked up): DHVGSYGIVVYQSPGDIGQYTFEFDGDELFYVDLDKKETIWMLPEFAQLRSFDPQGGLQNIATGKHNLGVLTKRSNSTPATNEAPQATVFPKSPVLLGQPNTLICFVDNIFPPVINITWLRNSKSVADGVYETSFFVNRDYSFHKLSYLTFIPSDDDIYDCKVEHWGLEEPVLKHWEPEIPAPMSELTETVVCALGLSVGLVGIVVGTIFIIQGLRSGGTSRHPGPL

Seu.5 T cells = assay: T cell hybridoma assay: IL-2 production by Seu.5 T cells; format: cell-based, A/J mice; details: APC pulsed with the peptide, tissue culture assay; data not shown
A/J mice = assay: Induction and quantitation of autoimmune myocarditis in A/J mice; format: in vivo; details: experiment 1; 100 μg myosin or 100 nmol peptide; H&E cross-sections, day 21
[2] = molecular target: purified I-Ak molecules (mouse); assay: radioligand binding
[3] = molecular target: I-Ak molecules on the surface of I-Ak-expressing M12.C3.F6 B-lymphoma cells (mouse); assay: SDS/PAGE stability assay

MBP(Ac1-11): myelin basic protein epitope (Ac-MGNHSGKRELS; UniProt P04370 1-11, looked up, fragment)
induction of experimental autoimmune encephalomyelitis [1]: could strongly induce experimental autoimmune
binding to I-Au (I-Au molecule): bound very weakly

SAFDVLSFTAEEKA [myhc0~(335-348)]
stimulation of Seu.5 T cells by peptide-pulsed APC (Seu.5 T cells): strongly stimulated

DSAFDVLSFTAEEKAGVYK [myhca(334-352)]
severity of myocarditis in photomicrographs (Fig. 4 B) (A/J mice): Moderate; also recorded: Severe

B1: 125I-labeled HEL(YE52-61) (peptide)
peptide: YEDYGILQINSR
modifications: also: 125I-labeled, residue not given here
maximum binding in the absence of competitors [2]: 148000 cpm

B2: HEL(YE52-61), unlabeled (peptide)
peptide: YEDYGILQINSR
relative IC50 (relative to unlabeled HEL(YE52-61)) [2]: 1

B3: myhc alpha(334-352) peptide, unlabeled (peptide)
peptide: DSAFDVLSFTAEEKAGVYK
relative IC50 (relative to unlabeled HEL(YE52-61)) [2]: 15.6

B4: bovine RNase(43-56) (peptide)
peptide: VNTFVHESLADVQA
relative IC50 (relative to unlabeled HEL(YE52-61)) [2]: 33.3

B5: myhc alpha(334-352) peptide, radiolabeled (peptide)
peptide: DSAFDVLSFTAEEKAGVYK
modifications: not fully specified; also: radiolabel on Tyr, isotope not given here
percent SDS-stable I-Ak [3]: 50%

B6: 125I-labeled HEL(48-61) (peptide)
peptide: DGSTDYGILQINSR
modifications: also: 125I-labeled, residue not given here
percent SDS-stable I-Ak [3]: 96%
